Measured values as given in publication PMC1557793.
Like-named read-outs stand apart in the source and are kept apart here.

How the values were obtained:
[1] = biological target: E1 helicase domain of bovine papillomavirus type-1 (BPV-1) E1 (bovine papillomavirus type-1 (BPV-1)); test: SEC
[2] = biological target: E1 helicase domain of bovine papillomavirus type-1 (BPV-1) E1 (bovine papillomavirus type-1 (BPV-1)); test: SEC + other: glycerol gradient sedimentation
[3] = biological target: T1, E1HD (E1 helicase domain) (bovine papillomavirus type 1 (BPV-1), UniProt P03116 299-605); test: gel filtration
T1 sequence (P03116 299-605): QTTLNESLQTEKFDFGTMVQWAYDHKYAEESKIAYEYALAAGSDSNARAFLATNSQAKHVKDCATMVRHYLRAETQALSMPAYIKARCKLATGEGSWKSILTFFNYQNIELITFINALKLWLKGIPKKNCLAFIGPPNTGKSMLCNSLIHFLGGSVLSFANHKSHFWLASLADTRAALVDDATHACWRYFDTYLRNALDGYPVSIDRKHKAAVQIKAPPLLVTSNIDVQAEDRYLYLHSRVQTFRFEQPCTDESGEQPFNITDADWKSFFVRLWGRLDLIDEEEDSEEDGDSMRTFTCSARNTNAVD

[4] = biological target: T1, E1HD (E1 helicase domain); test: EMSA
[5] = biological target: T1, E1HD (E1 helicase domain); test: EMSA; remark: listed apart in the source
[6] = biological target: T1, E1HD (E1 helicase domain); test: EMSA; remark: listed apart in the source
[7] = biological target: T1, E1HD (E1 helicase domain); test: EMSA; remark: listed apart in the source
[8] = biological target: T1, E1HD (E1 helicase domain); test: EMSA; remark: listed apart in the source

Chain of E1 helicase domain of bovine papillomavirus type-1 (BPV-1) E1 (domain or fragment) (P03116 whole entry, the tested form may be a part): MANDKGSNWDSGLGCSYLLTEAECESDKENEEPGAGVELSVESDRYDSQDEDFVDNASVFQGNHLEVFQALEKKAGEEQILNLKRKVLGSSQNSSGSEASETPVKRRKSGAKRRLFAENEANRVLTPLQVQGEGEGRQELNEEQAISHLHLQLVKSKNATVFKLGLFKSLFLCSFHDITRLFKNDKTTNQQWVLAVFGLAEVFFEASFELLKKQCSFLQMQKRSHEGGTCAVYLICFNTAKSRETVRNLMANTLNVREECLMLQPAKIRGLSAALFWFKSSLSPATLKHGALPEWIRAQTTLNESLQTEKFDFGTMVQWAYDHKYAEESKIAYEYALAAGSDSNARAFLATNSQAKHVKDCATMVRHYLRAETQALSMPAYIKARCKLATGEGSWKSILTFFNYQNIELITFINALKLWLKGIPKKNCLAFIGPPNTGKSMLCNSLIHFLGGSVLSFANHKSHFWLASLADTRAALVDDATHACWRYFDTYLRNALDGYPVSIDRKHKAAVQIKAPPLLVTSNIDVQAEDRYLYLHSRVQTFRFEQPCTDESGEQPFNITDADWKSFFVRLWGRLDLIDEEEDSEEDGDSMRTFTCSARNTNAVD

“E1 helicase domain of bovine papillomavirus type-1 (BPV-1) E1 (domain or fragment)” showed a percent of protein oligomeric [1] of 40%, a stoichiometry N [1] of 6 and a stoichiometry N [2] of 6.

TTTTTTTTTTTTTTTTTT (ssDNA) [T18]: binds [3].

TTTTTTTTTTTTTTTT (ssDNA) [T16]: binds [4].

TTTTTT (ssDNA) [T6]: no binding [5].

TTTTTTTTTTTTTTTTTTTT (ssDNA) [T20]: binds [4].

Molecule TTTTTTTTTTTTTTTTTTTTTTTTTTTTTT (ssDNA) [T30] has a Kd [6] of 1.83 ± 0.29 µM and a Kd [7] of 0.297 ± 0.007 µM.

TTTTTTTTTTTTTTTTTTTTTTTTTTTTTTTTTTTTTTTTTT (ssDNA) [T42]: binds [8].
